Experimental findings from paper PMC3156093 are described below.

The data set deals with EcoRV restriction endonuclease (UniProt P04390 1-245). In words: competition.
Chain of EcoRV restriction endonuclease (P04390 whole entry): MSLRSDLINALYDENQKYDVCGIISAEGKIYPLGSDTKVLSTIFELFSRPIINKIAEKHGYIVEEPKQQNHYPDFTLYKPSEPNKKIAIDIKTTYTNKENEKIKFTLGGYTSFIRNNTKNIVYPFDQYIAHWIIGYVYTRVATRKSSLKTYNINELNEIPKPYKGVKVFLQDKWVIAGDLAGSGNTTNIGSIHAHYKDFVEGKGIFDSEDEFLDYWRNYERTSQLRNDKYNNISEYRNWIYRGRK

B1: 30 bp specific site oligonucleotide (dsDNA)
DNA 1: CGGGCCTCTTGCGGGATATCGTCCATTCCG
DNA 2: CGGAATGGACGATATCCCGCAAGAGGCCCG
Regarding B1, the binding signal is < 9 % N1 complex remaining at 30-fold excess competitor.
